B1: 2021EP030-F02 scFv (scFv, V domains shown)
VH: QVQLQESGPGLVKPSETLSLTCTVSGGSISSSSYYWGWIRQPPGKGLEWIGSIYYSGSTYYNPSLKSRVTISVDTSKNQFSLKLSSVTAADTAVYYCARQANQVVPAAIPWAKPGGTPPNWFDPWGQGTLVTVSS
VL: QLVLTQPPSVSVAPGETARITCGGNNIGSKSVHWYQQKPGQAPVLVIYYDSARPSGIPERVSGSNSGNTATLTISRVEAGDEADYYCQVWDSSSDHPRVFGTGTKLTVL
B2: 2021EP030-C11 scFv (scFv, V domains shown)
VH: QMQLVQSKPEVKKPGTSVKVSCKASGFTFTSSAVQWVRQARGQRLEWIGWIVVGSGNTNYAQKFQERVTITRDMSTSTAYMELSSLRSEDTAVYYCAADGDYDIEGALDYWGQGTLVTVSS
VL: EIVLTQSPAILSLSPGERATLSCRASQSVSSYLAWYQQKPGQAPRLLIYDASNRATGIPARFSGSGSGTDFTLTISSLEPEDFAVYYCQQRSNWITFGGGTKVEIK
B3: 2021EP029-C04 scFv (scFv, V domains shown)
VH: QLQLQQSGPGLVKPSQTLSLTCAISGDSVSSNRAAWSWIRQSPSRGLEWLGRTYYRSKWYNDYAVSVESRIIINPDTSKNQFSLQLNPVTPEDTAVYYCARGSFESTWLWGQGTLVTVSS
VL: QAVVTQPHSVSESPGKTVTISCTRSGGSIANNYVHWYQQRPGSFPTALIYQDNQRRSGVPDRFSGSIDSSSNSASLTISGLKTEDEAEYYCQSFDNNNVVFGGGTQLTVL
B4: 2021EP030-B10 scFv (scFv, V domains shown)
VH: QVQLVESGGDLVNPGRSLRLACTGAGFTFGDYAVSWFRQAPGKGLEWVGFIESKPYGETREYAASVRGRFTISRDDSKGIAYLQMNGLKTEDTGVYYCSSVVAWVAYWGQGTLVTVSS
VL: AIQLTQSPSSLSASIGDRVTITCRASQSVTTYLNWYHQKPGKAPTFLIYGTSALQSGVPSRFSGSGSGTDFTLTISSLQPEDFGIYYCQQSYSLPPTFGGGTNVQIR
B5: 2021EP032-E06 scFv (scFv, V domains shown)
VH: QVQLVESGAEVKKPGASVKVSCKASGYTFTGYYMHWVRQAPGQGLEWMGRINPNSGGTNYAQKFQGRFTISRDNSKTTLFLQMNSLRAEDTAVYYCAKADYQWVGAIFRLNAFDIWGQGTMVTVSS
VL: VIWMTQSPSSLSASVGDRVTITCRASQGISNYLAWYQQKPGKVPKLLIYAASTLQSGVPSRFSGSGSGTDFTLTISSLQPEDVATYYCQKYNSAPYTFGQGTKLEIK
B6: 2020EP034-E01 scFv (scFv, V domains shown)
VH: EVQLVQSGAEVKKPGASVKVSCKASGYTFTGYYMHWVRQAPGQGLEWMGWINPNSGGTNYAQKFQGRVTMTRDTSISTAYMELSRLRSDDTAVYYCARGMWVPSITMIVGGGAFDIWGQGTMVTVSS
VL: DVVMTQSPLSLPVTPGEPASMSCRSSESLLHRNGFNYLDWYVQRPGQSPKLLIYMGSYRASGVPDRFSGRGSGTDFALKISRVEAEDVGVYYCMQALQSPPLYTFGPGTKLEIK
B7: 2020EP034-B09 scFv (scFv, V domains shown)
VH: EVQLVQSGAEVKKPGASVKVSCKASGYTFTGYYMHWVRQAPGQGLEWMGRINPNSGGTNYAQKFQGRVTMTRDTSISTAYMELSGLRSDDTAVYFCARVTYNIGWYIDYWGQGTLVTVSS
VL: QAVVTQPPSVSVAPGKTATITCGGNNIGSKGVHWYQQKPGQAPVLVIYYDTDRPSGIPERLSGSNSGNTATLTISRVEAGDEADYYCQVWDSSSDHPVFGGGTKLTVL
B8: 2020EP47-F02 scFv (scFv, V domains shown)
VH: QVQLQQWGAGLLKPSETLSLTCAVYGGSFSGYYWSWIRQPPGKGLEWIGEINHSGSTNYNPSLKSRVTISVDTSKNQFSLKLSSVTAADTAVYYCARGWYLGFDYWGQGTLVTVSS
VL: QSVLTQPRSVSGSPGQSVTISCTGTSRDVGGYDYVSWYQQYPGKAPKLMISGVSERPSGVPDRFTGSRSANTASLTISGLQTDDEANYYCCSYAGSFTWVFGDGTKLTVL
notes: also called EP047-F02
B9: 2021EP032-D10 scFv (scFv, V domains shown)
VH: EVQLVESGAEVKKPGSSVKVSCKASGGTFSSYAISWVRQAPGQGLEWMGGIIPIFGTANYAQKFQGRVAITADESTSTAYMELSSLRSEDTAVYYCARDLAIVYGSGSYYNHHPRIDYYYYGMDVWGQGTTVTVSS
VL: QSVLTQPRSVSGSPGQSVTISCAGTSSDIGAYNYVSWYQQHPGKAPTLMINDVSKRPSGVPDRFSGSKSGNTASLTISGLQAEDEGDYYCFSYAGSYTLVFGGGTQLTVL
B10: 2021EP023-D06 scFv (scFv, V domains shown)
VH: QVQLVESGAEVKKPGSSVKVSCKASGGTFSSYAISWVRQAPGQGLEWMGGIIPIFGTANYAQKFQGRVTITADESTSTAYMELSSLRSEDTAVYYCARSRPVRGAYYWGQGTLVTVSS
VL: DIQMTQSPSSLSASVGDRVTITCRASQIVNSNYLNWYQQKPGKAPNLLIYGVSNLQVGVPSRFSGSGSGTDFTLSISSLQVEDSATYYCQQSYTTPRYSFGQGTKLEIRR
notes: Purified scFv with C-terminal flag and 6xHis tag

Target: T1, full-length human Nectin4 with C-terminal flag and Myc tags on CHO cells (human, UniProt Q96NY8 32-510)
T1 construct: whole, on cells; also called Nectin4/CHO; CHO/Nectin4; not shown: C-terminal flag and Myc tags of pCMV6-Entry vector
T1 sequence (looked up): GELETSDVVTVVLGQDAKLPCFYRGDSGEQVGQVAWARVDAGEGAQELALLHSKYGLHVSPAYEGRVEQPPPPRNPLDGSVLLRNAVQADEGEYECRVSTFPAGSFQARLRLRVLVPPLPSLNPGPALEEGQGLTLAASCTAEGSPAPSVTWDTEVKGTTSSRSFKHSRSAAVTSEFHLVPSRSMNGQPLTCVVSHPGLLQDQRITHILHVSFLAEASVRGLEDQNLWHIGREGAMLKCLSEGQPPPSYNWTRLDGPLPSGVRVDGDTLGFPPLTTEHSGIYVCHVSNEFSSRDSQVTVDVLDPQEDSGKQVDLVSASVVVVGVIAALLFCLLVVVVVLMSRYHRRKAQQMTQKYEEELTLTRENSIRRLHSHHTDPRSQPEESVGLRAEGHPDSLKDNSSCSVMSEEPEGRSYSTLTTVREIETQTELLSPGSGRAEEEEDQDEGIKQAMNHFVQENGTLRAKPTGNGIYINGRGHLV
Assay: flow cytometry, scFv on Nectin4/CHO cells
Experimental: To determine whether anti-Nectin4 scFvs bind to Nectin4 expressing cells, 200 nM of purified anti-Nectin4 scFv antibodies were diluted in full medium and incubated with Nectin4/CHO and CHO cells in 96 wells plate on ice for 1 hour. Cells were spun down at 1200 rpm for 5 minutes at 4° C. to remove primary antibodies. Cells were then washed once with 200 uL of full medium per well. Samples were detected with premixed anti-His Biotin Streptavidin Alexa fluor 647 by adding 100 uL of diluted secondary antibody and incubated at 4° C. for 30 minutes in the dark. Samples were spun down at 1200 rpm for 5 minutes at 4° C. and washed twice with 200 uL of 1×PBS per well. Reconstituted samples in 200 uL of 1×PBS and read on Attune NxT cytometer. Analysis was done by Attune NxT software plotting the overlay histogram of anti-Nectin4 scFvs binding onto both negative and target cell lines.

Row | Binder | EC50 [nM]
1 | B1 | 0.194
2 | B2 | 13
3 | B3 | 0.001
4 | B4 | 24.2
5 | B5 | < 0.001
6 | B6 | > 50
7 | B7 | 0.36
8 | B8 | 4.51
9 | B9 | 0.29

Target: T2, human Nectin4-Fc fusion protein (human, UniProt Q96NY8 32-349)
T2 construct: Recombinant protein coated in the scFv ELISA and captured on the anti-hFc chip in the scFv SPR; also called recombinant Nectin4-Fc fusion protein; human Nectin4-Fc protein; not shown: Fc part
T2 sequence (looked up): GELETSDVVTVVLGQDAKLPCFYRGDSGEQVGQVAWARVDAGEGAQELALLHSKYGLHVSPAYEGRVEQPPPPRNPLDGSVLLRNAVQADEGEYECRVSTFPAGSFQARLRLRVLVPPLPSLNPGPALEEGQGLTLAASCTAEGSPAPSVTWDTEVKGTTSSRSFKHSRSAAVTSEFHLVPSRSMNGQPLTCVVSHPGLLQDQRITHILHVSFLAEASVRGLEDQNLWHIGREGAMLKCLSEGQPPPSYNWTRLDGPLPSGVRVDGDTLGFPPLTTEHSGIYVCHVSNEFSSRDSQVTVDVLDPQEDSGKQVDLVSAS
Assay: ELISA, coated human Nectin4-Fc, scFv titrated, anti-Flag HRP
Experimental: An ELISA assay was developed to determine the EC₅₀ of anti-Nectin4 antibodies. Briefly, 384 well plate was immobilized with human Nectin4-Fc at final concentration of 2 ug/mL in 1×PBS in total volume of 25 uL per well. The plate was incubated overnight at 4° C. followed by blocking with 80 uL of superblock per well for 1 hour. Purified anti-Nectin4 scFvs were 2-fold serial titrated from 200 nM. 25 uL was added to human Nectin4 immobilized wells and incubated for 1 hour with shaking. The Nectin4 binding was detected by adding 25 uL of anti-Flag HRP diluted at 1:5000 in 1×PBST. In between each step, the plate was washed 3 times with 1×PBST in a plate washer. The plate was then developed with 20 uL of TMB substrate for 5 mins and stopped by adding 20 uL of 2 N sulfuric acid. The plate was read at OD450 nm Biotek plate reader and then plotted in Prism 8.1 software.

Row | Binder | EC50 [nM]
10 | B1 | 2.97
11 | B2 | 291
12 | B3 | 0.857
13 | B5 | 0.412
14 | B7 | 5.07
15 | B9 | 8.76

Target: T2, human Nectin4-Fc fusion protein
Assay: SPR Biacore T200, Nectin4-Fc captured on anti-hFc chip, scFv injected
Experimental: Kinetic analysis of anti-Nectin4 scFvs has been assessed by SPR technology with Biacore T200. The assay was run with Biacore T200 control software version 2.0. Anti-human Fc antibody was immobilized on flow cell 1 and 2 of CM5 sensor chip. For each cycle, 1 ug/mL of human Nectin4-Fc protein was captured for 60 seconds at flow rate of 10 ul/min on flow cell 2 in 1×HBSP buffer on anti-hFc sensor chip. 2-fold serial diluted HIS tag purified anti-Nectin4 scFv was injected onto both reference flow cell 1 and Nectin4-Fc captured flow cell 2 for 150 seconds at flow rate of 30 ul/min followed by wash for 300 seconds. The flow cells were then regenerated with Antibody regeneration buffer (GE) for 30 seconds at flow rate of 30 ul/mins. 8 concentration points from 300-0 nM was assayed per anti-Nectin4 scFv in a 96 well plate. The kinetics of scFvs binding to Nectin4 protein was analyzed with Biacore T200 evaluation software version 3.0. The specific binding response unit was derived from subtraction of binding to reference flow cell 1 from Nectin4 captured flow cell 2.

Row | Binder | Kd [nM] | koff [s⁻¹] | kon [M⁻¹ s⁻¹]
16 | B10 | 0.407 | 0.000195 | 480000
17 | B1 | 1.85 | 0.000215 | 116000
18 | B2 | 55.5 | 0.000262 | 4710
19 | B6 | 10.9 | 0.000406 | 37000
20 | B7 | 1.47 | 0.00018 | 122000

From patent US20240368275A1 (ELPIS BIOPHARMACEUTICALS, published 2024)
